Results taken from patent US20030092616A1, “STAT6 activation gene” (priority 2001, published 2003).

B1: 293 (nucleic acid, listed as Homo sapiens)
chain: GAGCATACACCGAGAGAGTGAGGAGCCAGACGACAAGCACACACTATGGCGCTGAAACGGATTAATAAGGAACTTAGTGATTTGGCCCGTGACCCTCCAGCACAATGTTCTGCAGGTCCAGTTGGGGATGATATGTTTCATTGGCAAGCCACAATTATGGGACCTAATGACAGCCCATATCAAGGCGGTGTATTCTTTTTGACAATTCATTTTCCTACAGACTACCCCTTCAAACCACCTAAGGTTGCATTTACAACAAGAATTTATCATCCAAATATTAACAGTAATGGCAGCATTTGTCTCGATATTCTAAGATCACAGTGGTCGCCTGCTTTAACAATTTCTAAAGTTCTTTTATCCATTTGTTCACTGCTATGTGATCCAAACCCAGATGACCCCCTAGTGCCAGAGATTGCACGGATCTATAAAACAGACAGAGATAAGTACAACAGAATATCTCGGGAATGGACTCAGAAGTATGCCATGTGATGCTACCTTAAAGTCAGAATAACCTGCATTATAGCTGGAATAAACTTTAAATTACTGTTCCTTTTTTGATTTTCTTATCCGGCTGCTCCCCTGATCAGACCTCATCTTTTTTAATTTTATTTTTTGTTTACCTCCCTCCATTCATTCACATGCTCATCTGAGAAGACTTAAGTTCTTCCAGCTTTGACAATAACTGCTTTTAGAAACTGTAAAGTAGTTACAAGAGAACAGTTGG
modifications: CDS (46)..(486)
B2: 295 (nucleic acid, listed as Homo sapiens)
chain: ACTCGTGCGTGAGGCGAGAGGAGCCGGAGACGAGACCAGAGGCCGAACTCGGGTTCTGACAAGATGGCCGGGCTGCCCCGCAGGATCATCAAGGAAACCCAGCGTTTGCTGGCAGAACCAGTTCCTGGCATCAAAGCCGAACCAGATGAGAGCAACGCCCGTTATTTTCATGTGGTCATTGCTGGCCCTCAGGATTCCCCCTTTGAGGGAGGGACTTTTAAACTTGAACTATTCCTTCCAGAAGAATACCCAATGGCAGCCCCTAAAGTACGTTTCATGACCAAAATTTATCATCCTAATGTAGACAAGTTGGGAAGAATATGTTTAGATATTTTGAAAGATAAGTGGTCCCCAGCACTGCAGATCCGCACAGTTCTGCTATCGATCCAGGCCTTGTTAAGTGCTCCCAATCCAGATGATCCATTAGCAAATGATGTAGCGGAGCAGTGGAAGACCAACGAAGCCCAAGCCATAGAAACAGCTAGAGCATGGACTAGGCTATATGCCATGAATAATATTTAAATTGATACGATCATCAAGTGTGCATCACTTCTCCTGTTCTGCCAAGACTTCCTCCTCTTTGTTTGCATTTAATGGACACAGTCTTAGAAACATTACAGAATAAAAAAGCCCAGACATCTTCAGTCCTTTGGTGATTAAATGCACATTAGCAAATCTATGTCTTGTCCTGATTCACTGTCATAAAGCATGAGCAGAGGCTAGAAGTATCATCTGGATTGTTGTGAAACGTTTAAAAGCAGTGGCCCCTCCCTGCTTTTATTCATTTCCCCCATCCTGGTTTAAGTATAAAGCACTGTGAATGAAGGTAGTTGTCAGGTTAGCTGCAGGGGTGTGGGTGTTTTTATTTTATTTTATTTTATTTTATTTTTGAGGGGGGAGGTAGTTTAATTTTATGGGCTCCTTTCCCCCTTTTTTGGTGATCTAATTGCATTGGTTAAAAGCAGCTAACCAGGTCTTTAGAATATGCTCTAGCCAAGTCTAACTTTATTTAGACGCTGTAGATGGACAAGCTTGATTGTTGGAACCAAAATGGGAACATTAAACAAACATCACAGCCCTCACTAATAACATTGCTGTCAAGTGTAGATTCCCCCCTTCAAAAAAAGCTTGTGACCATTTTGTATGGCTTGTCTGGAAACTTCTGTAAATCTTATGTTTTAGTAAAATATTTTTTGTTATTCT
modifications: CDS (64)..(519)
B3: 291 (nucleic acid, listed as Homo sapiens)
chain: CGCCATCCCTGACCCATGGCGCTGAAGAGGATTCAGAAAGAATTGAGTGATCTACAGCGCGATCCACCTGCTCACTGTTCAGCTGGACCTGTGGGAGATGACTTGTTCCACTGGCAAGCCACTATTATGGGGCCTCCTGATAGCGCATATCAAGGTGGAGTCTTCTTTCTCACTGTACATTTTCCGACAGATTATCCTTTTAAACCACCAAAGATTGCTTTCACAACAAAAATTTACCATCCAAACATAAACAGTAATGGAAGTATTTGTCTCGATATTCTGAGGTCACAATGGTCACCAGCTCTGACTGTATCAAAAGTTTTATTGTCCATATGTTCTCTACTTTGTGATCCTAATCCAGATGACCCCTTAGTACCAGATATTGCACAAATCTATAAATCAGACAAAGAAAAATACAACAGACATGCAAGAGAATGGACTCAGAAATATGCAATGTAA
modifications: CDS (16)..(456)
B4: 275 (nucleic acid, listed as Homo sapiens)
chain: GCAGACCCCCATCATGGGCAGCCAGAGCTCCAAGGCTCCCCGGGGCGACGTGACCGCCGAGGAGGCAGCAGGCGCTTCCCCCGCGAAGGCCAACGGCCAGGAGAATGGCCACGTGAAAAGCAATGGAGACTTATCCCCCAAGGGTGAAGGGGAGTCGCCCCCTGTGAACGGAACAGATGAGGCAGCCGGGGCCACTGGCGATGCCATCGAGCCAGCACCCCCTAGCCAGGGTGCTGAGGCCAAGGGGGAGGTCCCCCCCAAGGAGACCCCCAAGAAGAAGAAGAAATTCTCTTTCAAGAAGCCTTTCAAATTGAGCGGCCTGTCCTTCAAGAGAAATCGGAAGGAGGGTGGGGGTGATTCTTCTGCCTCCTCACCCACAGAGGAAGAGCAGGAGCAGGGGGAGATCGGTGCCTGCAGCGACGAGGGCACTGCTCAGGAAGGGAAGGCCGCAGCCACCCCTGAGAGCCAGGAACCCCAGGCCAAGGGGGCAGAGGCTAGTGCAGCCTCAGAAGAAGAGGCAGGGCCCCAGGCTACAGAGCCATCCACTCCCTCGGGGCCGGAGAGTGGCCCTACACCAGCCAGCGCTGAGCAGAATGAGTAGCTAGGTAGGGGCAGGTGGGTGATCTCTAAGCTGCAAAAACTGTGCTGTCCTTGTGAGGTCACTGCCTGGACCTGGTGCCCTGGCTGCCTTCCTGTGCCCAGAAAGGAAGGGGCTATTGCCTCCTCCCAGCCACGTTCCCTTTCCTCCTCTCCCTCCTGTGGATTCTCCCATCAGCCATCTGGTTCTCCTCTTAAGGCCAGTTGAAGATGGTCCCTTACAGCTTCCCAAGTTAGGTTAGTGATGTGAAATGCTCCTGTCCCTGGCCCTACCTCCTTCCCTGTCCCCACCCCTGCATAAGGCAGTTGTTGGTTTTCTTCCCCAATTCTTTTCCAAGTAGGTTTTGTTTACCCTACTCCCCAAATCCCTGAGCCAGAAGTGGGGTGCTTATACTCCCAAACCTTGAGTGTCCAGCCTTCCCCTGTTGTTTTTAGTCTCTTGTGCTGTGCCTAGTGGCACCTGGGCTGGGGAGGACACTGCCCCGTCTAGGTTTTTATAAATGTCTTACTCAAGTTCAAACCTCCAGCCTGTGAATCAACTGTGTCTCTTTTTTGACTTGGTAAGCAAGTATTAGGCTTTGGGGTGGGGGGAGGTCTGTAATGTGAAACAACTTCTTGTCTTTTTTTCTCCCACTGTTGTAAATAACTTTTAATGGCCAAACCCCAGATTTGTACTTTTTTTTTTTTTCTAACTGCTAAAACCATTCTCTTCCACCTGGTTTTACTGTAACATTTGG
modifications: CDS (14)..(598)
B5: 69 (nucleic acid, listed as Homo sapiens)
chain: AGTGTTTGGGTTTCTTCGCGGCTGCTCAAGATGAACCGACTCTTCGGGAAAGCGAAACCCAAGGCTCCGCCGCCCAGCCTGACTGACTGCATTGGCACGGTGGACAGTAGAGCAGAATCCATTGACAAGAAGATTTCTCGATTGGATGCTGAGCTAGTGAAGTATAAGGATCAGATCAAGAAGATGAGAGAGGGTCCTGCAAAGAATATGGTCAAGCAGAAAGCCTTGCGAGTTTTAAAGCAAAAGAGGATGTATGAGCAGCAGCGGGACAATCTTGCCCAACAGTCATTCAACATGGAACAAGCCAATTATACCATCCAGTCTTTGAAGGACACCAAGACCACGGTTGATGCTATGAAACTGGGAGTAAAGGAAATGAAGAAGGCATACAAGCAAGTGAAGATCGACCAGATTGAGGATTTACAAGACCAGCTAGAGGATATGATGGAAGATGCAAATGAAATCCAAGAAGCACTGAGTCGCAGTTATGGCACCCCAGAACTGGATGAAGATGATTTAGAAGCAGAGTTGGATGCACTAGGTGATGAGCTTCTGGCTGATGAAGACAGTTCTTATTTGGATGAGGCAGCATCTGCACCTGCAATTCCAGAAGGTGTTCCCACTGATACAAAAAACAAGGATGGAGTTCTGGTGGATGAATTTGGATTGCCACAGATCCCTGCTTCATAGATTTGCATCATTCAAGCATATCTTGTAAAACAAACACATATTATGGGACTAGGAAATATTTATCTTTCCAAATTTGCCATAACAGATTTAGGTTTCTTTCCTTTCTTTGAAGGAAAGTTTAATTACATTGCTCTTTTATTTTTTCCATTAAGAGACTCATTGCTTGGGAAATGCTTTCTTCGTACTAAAATTTGATTCCTTTTTTTCTTATGAAAAACGAACTCAGTTTAAAAGTATTTTTAGCTCGTATGACTTGTTTTCATTCATTAATAATAATTTGAAATAAAACTAAGGAAATGGAATCTTAAAAGTCTATGACAGTGTAACTCTACAGTCTCAAAATGACCTGATAAATTGATAAGACAAAGATGAGATTATTGGGGCTGTTCATATTATGATTCAGAATCATTTTCTATTGTGGTATTATAGGTTGGTTAAAGTGATGGCCTTTTTGATGGGTTTTGTTGTGTCTTGTGAACAAGTCGTTACTGTGTCCATTATTGGAATGGAATTATCACTACTGTATCATGAGTGGGTATTTTGATTCTATGGTTCCCTCAGTATTACATCTTGACTTGTAATCAATTATGAATATTTCTTGATATTTAATGTATAGGACATTTATTTATACTCAATAAATATTTTTCAAAAGG
modifications: CDS (31)..(687)

Each molecule was assayed on STAT6 (assay: Screening of full-length cDNA clones for promotion of STAT6 activation (luciferase reporter N4×8-luc)). Details: NIH3T3 cells cotransfected with N4×8-luc reporter and cDNA plasmid; 48 h culture, then mouse IL-4 0.5 ng/ml for 6 h.
Format: cell-based
Summary of the method: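 NIH3T3 cells cotransfected with STAT6-responsive N4×8-luc reporter (100 ng) and full-length cDNA, cultured 48 h, then given mouse IL-4 at 0.5 ng/ml final for 6 h. Luciferase activity compared with reporter plus null-vector control.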

| Molecule | Activity = (luciferase activity of the gene of each SEQ ID NO:)/(luciferase activity of pME18S-FL3) |
| --- | --- |
| B1 | 25.8 |
| B2 | 31.0 |
| B3 | 13.0 |
| B4 | 17.0 |
| B5 | 11.7 |
